Target: monomeric red fluorescent protein (mRFP)
Assay: native MS; ESI-TWIMS-MS (nanoESI, Synapt HDMS), purified protein in 50 mM ammonium acetate; gas phase; self-association

Substance: monomeric red fluorescent protein (mRFP)
- stoichiometry N: 2
